Reference: publication PMC5421877, “SOCS3 inhibits the pathological effects of IL-22 in non-melanoma skin tumor-derived keratinocytes” (Oncotarget, 2017)

Experiments:
IL-22R1 phosphorylation = assay: IP/WB of IL-22R1 phosphorylation in healthy keratinocytes (IL-22); assay type: cell-based, human; settings: IL-22 10 min, no peptide, n = 3
Protocol: Figure 5 KIR-ESS peptide inhibits IL-22-induced phosphorylation of STAT3 and Erk in healthy and SCC-derived keratinocytes (A) Protein extracts obtained from healthy keratinocytes (n = 3) pre-treated or not with 15 μM (left panel) or 75 μM (right panel), KIR, KIR-ESS and control (Ctrl1 or Ctrl2) peptides, and, then, stimulated or not with IL-22 for 20 min, were subjected to WB analysis to detect STAT3 (Tyr705), Erk and MEK phosphorylation. Filters were probed with anti-STAT3, -Erk and –MEK Abs (top). (B) Protein extracts obtained from healthy keratinocytes (n = 3) pre-treated or not with 75 μM KIR-ESS and control (Ctrl1) peptides, and, then, stimulated or not with IL-22 for 10 min, were subjected to immunoprecipitation for IL-22R1 and Jak1, and then analysed by WB to detect phosphorylated and unphosphorylated forms of the proteins. (C) Unphosphorylated and phosphorylated forms of STAT1 (Tyr701) and STAT3 (Tyr705) were monitored in keratinocytes treated with IFN-γ for 15 min by WB analysis (bottom). In all experimental groups, filters were stripped and re-probed with β-actin Ab. (D) Protein extracts were obtained from CAL27 (left panel) or CAL33 (right panel) lines treated or not with 75 μM peptides in presence of IL-22 or IFN-γ. WB was performed to detect basal and phosphorylated STAT1, STAT3 and Erk. […]

[1] = system: STAT3 phosphorylation in BCC and SCC lines; assay: phospho-STAT3 levels in transformed keratinocyte lines (IL-22); assay type: cell-based; settings: BCC (n = 2) and SCC (n = 5) lines vs healthy strains (n = 5), IL-22 time course
Protocol: Figure 4 SOCS3 and SOCS1 are poorly expressed in the epidermis of NMSC lesions and are not induced in transformed keratinocytes by IL-22 (A) Immunohistochemistry for SOCS3 and SOCS1 (red staining) was performed respectively on frozen or paraffin-embedded sections from biopsies of healthy skin (i), NLS (ii, iii) and LS (iv, v) areas of BCC and SCC, specimens. Psoriatic skin biopsies were also analyzed (vi). Sections were counterstained with Mayer's H&E and were visually evaluated by an pathologist experienced in dermatology. One out of four representative staining is shown. Scale bars, […]. (B) Graphs show SOCS3 and SOCS1 mRNA levels which were detected by real-time PCR analysis in cultured SCC (CAL27 and CAL33) and BCC (M77015) skin tumor lines left untreated or stimulated with IL-22 or IFN-γ for 3 h and normalized for β-actin mRNA expression levels. All data were obtained from three independent experiments. […] SOCS1 was detected by IP using a specific anti-SOCS1 Ab, whereas SOCS3 by WB with an anti-SOCS3 Ab. […] Densitometric intensity (D.I.) of SOCS1 or SOCS3/β-actin was calculated from three independent experiments and numerically expressed as D. I. Ratio. *p < 0.01; **p < 0.05. […] SOCS3 and phospho-Tyr STAT3 levels were detected by WB and normalized to β-actin levels. […]

B1: IL-22: cytokine stimulus, R&D Systems (protein, UniProt Q9GZX6 34-179, looked up)
Interleukin-22: APISSHCRLDKSNFQQPYITNRTFMLAKEASLADNNTDVRLIGEKLFHGVSMSERCYLMKQVLNFTLEEVLFPQSDRFQPYMQEVVPFLARLSNRLSTCHIEGDDLHIQRNVQKLKDTVKKLGESGEIKAIGELDLLFMSLRNACI
Question: Which IL-22R1 phosphorylation induced (IL-22R1 phosphorylation) does the source give for B1 here?
Answer: induced molecular cascade implicating phosphorylation of IL-22R1, Tyk2 and Jak1

Question: And the phospho-STAT3 levels [1]?
Answer: higher compared to healthy cells, and showed a long-lasting activation
